The subject of the data set is ATP. Nature of the data set: switch fluorescence ratio, 500 uM ATP over buffer (Cy3 cluster intensity, sum of 5 cycles each) (fold (ratio)); higher = stronger signal-on switching upon ATP binding; sequences stand for … in TCGTCGGCAGCGTCAGATGTGTATAAGAGACAGTTTTTTTTTTTTTTTTTTTTTTTTT…TC. The following applies: aptamer strand: ATP DNA aptamer (quencher-CACCTGGGGGAGTATTGCGGAGGAAGG + anchor), 100 nM annealed; ATP concentration: 500 uM. In a few lines: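 After annealing to 100 nM quencher-labelled ATP aptamer, Cy3-labelled switching-strand clusters on a modified Illumina MiSeq flow-cell were imaged in selection buffer. A second image followed after 15 min with 500 uM ATP at 22 °C, and five such buffer/ATP cycles were done, each separated by NaOH stripping and re-annealing. The fluorescence ratio, averaged per switch-domain sequence, is summed target-cycle over summed buffer-cycle Cy3 intensity per cluster, with clusters outside 100-1000 RFU excluded.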

± gives the standard deviation of the averaged measurements.

78 sequences from the supplement of paper PMC10126150 can be followed below.
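Also: ATP exposure 15 min at 22 °C before imaging.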

With AGGGGTTGGG, the switch fluorescence ratio turned out to be 0.992 ± 0.061.
In the case of GACTTGGTGT, the switch fluorescence ratio was found to be 1.047 ± 0.0092.
In the case of TATTGGTTTT, the switch fluorescence ratio was determined as 1 ± 0.011.
As for GATGAACCTA, the switch fluorescence ratio is 1.04 ± 0.024.
Turning to AAGCGAGG, the switch fluorescence ratio is 0.9872 ± 0.0032.
For CCCGTAGTTA, the switch fluorescence ratio is 1.19 ± 0.042.
In the case of TCGTGGGAGC it was 1.014 ± 0.0089; in that of GGGGGCACGT, 1.017 ± 0.0074.
As to GGGTCTTGAT, the switch fluorescence ratio came to 0.9675 ± 0.0047.
In the case of AGCAAGTCCT, the switch fluorescence ratio stood at 1.12 ± 0.015.
With GCGTATACGG, the switch fluorescence ratio was 1.01 ± 0.028.
For TATTTGAGTC, the switch fluorescence ratio was 0.972 ± 0.021.
In the case of GGGGTTTGCA it was 0.978 ± 0.046.
Regarding GGCCTGGGGG, the switch fluorescence ratio came to 1 ± 0.019.
Consider GCGCTACAGT, for which the switch fluorescence ratio is 1.021 ± 0.0069.
Regarding TAAATCCAGG, the switch fluorescence ratio came to 1.24 ± 0.028.
Regarding TATATCATTG, the switch fluorescence ratio is 0.965 ± 0.011.
Consider AGGGGTATTT, for which the switch fluorescence ratio was 1.01 ± 0.041.
On to GAATTAGGTT, for which the switch fluorescence ratio came out at 1.01 ± 0.077.
For AGGGGTGGCG, the switch fluorescence ratio amounted to 1.02 ± 0.014.
In the case of CAAGCTTGGG it was 1 ± 0.034; in that of ATCGGGGGTA, 0.982 ± 0.016; in that of CGAGGGTGGC, 0.96 ± 0.11.
With AAGACGTGGT, the switch fluorescence ratio was 0.992 ± 0.008.
Turning to ATTTTAAAAT, the switch fluorescence ratio stood at 0.977 ± 0.013.
For the sequence AAAGTACTGG, the switch fluorescence ratio stood at 1.19 ± 0.042.
In the case of TCTCCTGGCT it was 1.01 ± 0.014; in that of TATTGGAACG, 0.99979 ± 0.0003; in that of GAGGGAGTTG, 0.997 ± 0.017.
As to GGAGGGGTCG, the switch fluorescence ratio was determined as 1.02 ± 0.033.
Consider GGCACATAAG, for which the switch fluorescence ratio was 1.012 ± 0.0033.
As for CGTTGCACAT, the switch fluorescence ratio was determined as 1.07 ± 0.016.
On to CCGGGTTTAG, for which the switch fluorescence ratio came to 1.03 ± 0.023.
Consider TGATAAAACG, for which the switch fluorescence ratio is 0.992 ± 0.041.
For ATGAATTGGA, the switch fluorescence ratio was determined as 0.989 ± 0.017.
Consider TCAACTTTTG, for which the switch fluorescence ratio was 0.9856 ± 0.0022.
As for ATATTTCTGT, the switch fluorescence ratio worked out at 0.981 ± 0.019.
In the case of ATGGTTTGGC it was 1 ± 0.049.
Turning to CGCTGAGCAC, the switch fluorescence ratio worked out at 1.18 ± 0.059.
Regarding GATTGAGATT, the switch fluorescence ratio amounted to 0.981 ± 0.033.
For TCCAGCTGA, the switch fluorescence ratio turned out to be 2.688 ± 0.015.
With TTGGGTGTTA, the switch fluorescence ratio came out at 0.9907 ± 0.0021.
On to TTTCCGATGA, for which the switch fluorescence ratio was determined as 1.08 ± 0.032.
For the sequence TGTGTGAAGT, the switch fluorescence ratio amounted to 1.01 ± 0.059.
With GTCTAATCAT, the switch fluorescence ratio came out at 0.967 ± 0.019.
For TCGCGCATTG, the switch fluorescence ratio came out at 1.14 ± 0.13.
Regarding GGCTATGGTG, the switch fluorescence ratio is 1.004 ± 0.01.
Regarding CAGCGGGCGA, the switch fluorescence ratio turned out to be 1.01 ± 0.032.
Regarding GAGTCTAGGA, the switch fluorescence ratio turned out to be 1.01 ± 0.039.
In the case of AACTATTAGA it was 0.952 ± 0.018.
As for ACTCGGCTTG, the switch fluorescence ratio was found to be 1.03 ± 0.023.
On to ACGTGCTCGG, for which the switch fluorescence ratio is 1.007 ± 0.01.
With AGAGTGGAGA, the switch fluorescence ratio amounted to 1.009 ± 0.0004.
As to TGGTTCATGT, the switch fluorescence ratio worked out at 0.9939 ± 0.008.
Turning to AAATAGGGGA, the switch fluorescence ratio turned out to be 0.989 ± 0.039.
In the case of TTATGGGGTA, the switch fluorescence ratio worked out at 1.04 ± 0.049.
Take AAGGGGCGGA: the switch fluorescence ratio was 0.97 ± 0.016.
Turning to TTGATTTTTA, the switch fluorescence ratio came out at 0.99 ± 0.044.
Regarding CAGATTATTT, the switch fluorescence ratio worked out at 0.99 ± 0.015.
Take GTTTCGCAGG: the switch fluorescence ratio was found to be 1.01 ± 0.015.
In the case of ATTAGATGGT it was 1.02 ± 0.024.
To AAGGTCAGCT belongs 0.991 ± 0.016.
On to CGGTGTGGGA, for which the switch fluorescence ratio was found to be 0.996 ± 0.044.
For ATTTTTTATT, the switch fluorescence ratio came to 0.9923 ± 0.0097.
As to GGGAGAGTTT, the switch fluorescence ratio stood at 1.01 ± 0.026.
For the sequence TTTGAGATCT, the switch fluorescence ratio came to 0.989 ± 0.027.
Turning to ACGGTAGTTG, the switch fluorescence ratio was 0.9851 ± 0.009.
On to TTTACTGGGC, for which the switch fluorescence ratio worked out at 1.03 ± 0.022.
Turning to TGGTAAAGGG, the switch fluorescence ratio was 0.991 ± 0.034.
Consider GACAGAATGT, for which the switch fluorescence ratio is 0.976 ± 0.023.
On to CGCTGCACGG, for which the switch fluorescence ratio was found to be 1.07 ± 0.038.
Take TAAACCGGTA: the switch fluorescence ratio came out at 1.03 ± 0.031.
In the case of AGGGGTGAGC, the switch fluorescence ratio turned out to be 1.02 ± 0.072.
Turning to TATACCCTTT, the switch fluorescence ratio was 1 ± 0.052.
For GGATGCAAGT, the switch fluorescence ratio is 0.998 ± 0.039.
Turning to ATCGGGGGAC, the switch fluorescence ratio is 0.959 ± 0.021.
Regarding CAGGGAAAAC, the switch fluorescence ratio stood at 1.03 ± 0.034.
With CGCATGTCTT, the switch fluorescence ratio came to 1.07 ± 0.0029.
